# According to PMC3074120 (Nucleic Acids Research, 2010):
# Biological target: GST-PIWI (PIWI domain of Ago2) (human, UniProt Q9UKV8 517-818)
# Experiment: pull-down
# Sequence of GST-PIWI (PIWI domain of Ago2) (Q9UKV8 517-818): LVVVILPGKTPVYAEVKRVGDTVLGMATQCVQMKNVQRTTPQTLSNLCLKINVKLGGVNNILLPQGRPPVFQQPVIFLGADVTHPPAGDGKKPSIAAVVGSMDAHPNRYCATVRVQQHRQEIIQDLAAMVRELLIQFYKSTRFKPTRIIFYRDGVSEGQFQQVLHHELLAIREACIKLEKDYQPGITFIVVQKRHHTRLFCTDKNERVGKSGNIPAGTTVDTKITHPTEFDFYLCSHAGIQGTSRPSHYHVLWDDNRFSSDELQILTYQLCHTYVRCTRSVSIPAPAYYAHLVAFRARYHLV
row,Binder,percent pull-down (of input) [%]
1,"NHA-Δ10 (GW182 fragment Δ10, amino acids 655-1343) (domain or fragment) QTNEQSSVWAKTGGTVESDGSTESTGRLEEKGTGESQSRDRRKIDQHTLLQSIVNRTDLDPRVLSNSGWGQTPIKQNTAWDTETSPRGERKTDNGTEAWGSSATQTFNSGACIDKTSPNGNDTSSVSGWGDPKPALRWGDSKGSNCQGGWEDDSAATGMVKSNQWGNCKEEKAAWNDSQKNKQGWGDGQKSSQGWSVSASDNWGETSRNNHWGEANKKSSSGGSDSDRSVSGWNELGKTSSFTWGNNINPNNSSGWDESSKPTPSQGWGDPPKSNQSLGWGDSSKPVSSPDWNKQQDIVGSWGIPPATGKPPGTGWLGGPIPAPAKEEEPTGWEEPSPESIRRKMEIDDGTSAWGDPSKYNYKNVNMWNKNVPNGNSRSDQQAQVHQLLTPASAISNKEASSGSGWGEPWGEPSTPATTVDNGTSAWGKPIDSGPSWGEPIAAASSTSTWGSSSVGPQALSKSGPKSMQDGWCGDDMPLPGNRPTGWEEEEDVEIGMWNSNSSQELNSSLNWPPYTKKMSSKGLSGKKRRRERGMMKGGNKQEEAWINPFVKQFSNISFSRDSPEENVQSNKMDLSGGMLQDKRMEIDKHSLNIGDYNRTVGKGPGSRPQISKESSMERNPYFDKDGIVADESQNMQFMSSQSMKLPPSNSALPNQALGSIAGLGMQNLNSVRQNGNPSMFGVGNTAAQ",≤ 85
2,"NHA-Δ5 (GW182 fragment Δ5, amino acids 1670-1962) (domain or fragment) TSAWSSIRASNYNVPLSSTAQSTSARNSDSKLTWSPGSVTNTSLAHELWKVPLPPKNITAPSRPPPGLTGQKPPLSTWDNSPLRIGGGWGNSDARYTPGSSWGESSSGRITNWLVLKNLTPQIDGSTLRTLCMQHGPLITFHLNLPHGNALVRYSSKEEVVKAQKSLHMCVLGNTTILAEFASEEEISRFFAQSQSLTPSPGWQSLGSSQSRLGSLDCSHSFSSRTDLNHWNGAGLSGTNCGDLHGTSLWGTPHYSTSLWGPPSSSDPRGISSPSPINAFLSVDHLGGGGESM",4.2
3,"NHA-Δ12 (GW182 fragment Δ12, amino acids 896-1219) (domain or fragment) FTWGNNINPNNSSGWDESSKPTPSQGWGDPPKSNQSLGWGDSSKPVSSPDWNKQQDIVGSWGIPPATGKPPGTGWLGGPIPAPAKEEEPTGWEEPSPESIRRKMEIDDGTSAWGDPSKYNYKNVNMWNKNVPNGNSRSDQQAQVHQLLTPASAISNKEASSGSGWGEPWGEPSTPATTVDNGTSAWGKPIDSGPSWGEPIAAASSTSTWGSSSVGPQALSKSGPKSMQDGWCGDDMPLPGNRPTGWEEEEDVEIGMWNSNSSQELNSSLNWPPYTKKMSSKGLSGKKRRRERGMMKGGNKQEEAWINPFVKQFSNISFSRDSPE",18
4,"NHA-Δ12a (GW182 fragment Δ12a, amino acids 896-1045) (domain or fragment) FTWGNNINPNNSSGWDESSKPTPSQGWGDPPKSNQSLGWGDSSKPVSSPDWNKQQDIVGSWGIPPATGKPPGTGWLGGPIPAPAKEEEPTGWEEPSPESIRRKMEIDDGTSAWGDPSKYNYKNVNMWNKNVPNGNSRSDQQAQVHQLLTP",0.2
